Test [1] deals with T1, human sclerostin (SOST) (human, UniProt Q9BQB4 24-213).
T1 construct: also called human SOST; h-SOST
T1 sequence (looked up): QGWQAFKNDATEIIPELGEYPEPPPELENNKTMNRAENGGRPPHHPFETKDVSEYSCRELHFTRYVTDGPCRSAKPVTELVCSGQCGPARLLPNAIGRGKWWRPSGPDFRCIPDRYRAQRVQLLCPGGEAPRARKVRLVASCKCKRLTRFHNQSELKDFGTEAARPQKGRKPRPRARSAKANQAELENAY
In words: binding ELISA, antigen-receptor binding blocking experiments, Biacore; no numbers given. For orientation: An ELISA detects its analyte on a solid surface through an enzyme-linked reagent.

The target of test [2] is T1, human sclerostin (SOST). The test can be described thus: blocking of the binding of human SOST to human LRP-6.
For test [3], the target named is T1, human sclerostin (SOST). In words: ELISA binding to human sclerostin (assay not given; taken from the text of Example 1).

B1: humanized anti-SOST antibody Ab-5 (antibody, human IgG4 S228P, kappa, V domains shown)
VH: EVQLVQSGAEVKKPGASVKVSCKASGYTFTDYNLDWLRQAPGEGLEWIGDIDPNDGDILYNQKFRDRVTMTTDTSTSTAYMELRSLRSDDTAVYYCARRWAYYFDYWGQGTTVTVSS
VL: DIVMTQSPSSLSASVGDRVTITCKASQSVSNDVAWYQQKPGKSPKLLIYYTSNRFTGVPDRFSGSGSGTDFTLTISSLQPEDFATYFCQQDYSSPVTFGGGTKVEIKR
notes: Human IgG4 heavy chain and kappa light chain
For B1, in test [1], the binding result is listed as “binds”.

B2: humanized anti-SOST antibody Ab-9 (antibody, human IgG4 S228P, kappa, V domains shown)
VH: EVQLVQSGAEVKKPGASVKVSCKASGYTFTDYNLDWLRQAPGEGLEWIGDIDPNNGDILYNQKFRDRVTMTTDTSTSTAYMELRSLRSDDTAVYYCARRWAYYFDYWGQGTTVTVSS
VL: NIVMTQSPSSLSASVGDRVTITCKASQSVSNDVAWYQQKPGKSPKLLIYYTSNRFTGVPDRFSGSGSGTDFTLTISSLQPEDFATYFCQQDYSSPVTFGGGTKVEIKR
notes: as for B1
B2: the binding result in test [1] was “binds”.

B3: humanized anti-SOST antibody Ab-10 (antibody, human IgG1, kappa, V domains shown)
VH: EVQLVQSGAEVKKPGASVKVSCKASGYTFTDYNLDWVRQAPGQGLEWMGDIDPNNGDILYNQKFRDRVTMTTDTSTSTAYMELRSLRSDDTAVYYCARRWAYYFDYWGQGTTVTVSS
VL: DIQMTQSPSSLSASVGDRVTITCKASQSVSNDVAWYQQKPGKAPKLLIYYTSNRFTGVPSRFSGSGSGTDFTLTISSLQPEDFATYYCQQDYSSPVTFGGGTKVEIKR
notes: kappa light chain
With B3, the binding result in test [1] is listed as “binds”.

B4: murine anti-human SOST monoclonal antibody Ab-1 (antibody, V domains shown)
VH: EVQLQQSGPELVKPGTSVKIPCQTSGYTFTDYNLDWLKQRPGESLEWIGDIDPNNGDILYNQKFRDKATLTVDTSSNTAYLELRSLTSEDTAVYYCARRWAYYFDYWGQGTTLTISS
VL: NIVMTQTPKLLFVSAGDRITITCKASQSVSNDVAWYQQKPGQSPKLLIYYTSNRFTGVPDRFTGSGYGTDFTLTINTVQAEDLAVYFCQQDYSSPVTFGAGTKLELK
notes: Murine hybridoma antibody; also called monoclonal hybridoma cell strain Ab-1; murine antibody Ab-1
Turning to B4, the concentration for half-maximal inhibition (IC50) in test [2] was found to be 9.91 nM. The molecule also returned an EC50 in test [3] of 0.701 nM.

What is called IC50 is the concentration that gives 50% inhibition. Higher therefore signals weaker potency. By EC50 is commonly meant the concentration needed to bring the measured effect to its halfway point.

Source of the values: patent publication US20250011411A1 (JIANGSU HENGRUI PHARMACEUTICALS, published 2025).
